The numbers were not newly measured in paper PMC4703387, “Identification of the Calmodulin-Binding Domains of Fas Death Receptor” (PLoS ONE, 2016), which cites them from elsewhere.

This series addresses T1, Ca^2+/CaM (Homo sapiens, UniProt P0DP23).
T1 construct: made in house
The following applies: ref [32]. An excerpt:
We have also shown that both lobes of Ca^2+/CaM are important for FasDD binding. […] Our attempt to identify the interaction regions by ... || To identify the Ca^2+/CaM-binding regions in large proteins is not a simple task. To predict the Ca^2+/CaM-binding site, a web-based tool is often used to provide favorable scores based on multiple criteria including hydropathy, α-helical propensity, hydrophobic residue content, residue charge, residue weight, helical class and occurrence of particular residues.[39] However, this method can still provide biased results.

B1: FasDD: intracellular death domain of Fas (protein)
chain: SKYITTIAGVMTLSQVKGFVRKNGVNEAKIDEIKNDNVQDTAEQKVQLLRNWHQLHGKKEAYDTLIKDLKKANLCTLAEKIQTII
B1: the “stoichiometry of Ca^2+/CaM–FasDD complex” value is “two Ca^2+/CaM molecules binding simultaneously to FasDD”.
